For this assay, the target named is CD2 (human) (UniProt P06729). The assay can be described thus: cell-based or functional assay.
Sequence of UniProt P06729 (P06729 25-351 limits assumed, form in doubt): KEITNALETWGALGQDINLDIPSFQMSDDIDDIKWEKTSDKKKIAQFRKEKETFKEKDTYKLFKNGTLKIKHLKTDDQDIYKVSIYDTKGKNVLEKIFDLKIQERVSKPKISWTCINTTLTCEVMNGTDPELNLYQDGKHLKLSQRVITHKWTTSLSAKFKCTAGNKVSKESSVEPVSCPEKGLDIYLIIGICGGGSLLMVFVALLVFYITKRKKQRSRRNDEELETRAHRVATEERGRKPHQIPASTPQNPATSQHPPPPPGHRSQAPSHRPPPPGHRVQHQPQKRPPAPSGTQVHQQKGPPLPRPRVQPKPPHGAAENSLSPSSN

anti-CD2 monoclonal antibody TS2/18 had an inhibition of allogeneic T cell activation by normal skin epidermal cells, 50 ug per ml antibody of 40% and an inhibition of autologous T cell proliferation ([3H]TdR incorporation) in response to lesional psoriatic epidermis, 50 ug/ml antibody, against isotype-matched control of 60%.

The values above are taken from patent publication EP0607332B1.
